Data as given in US7659376B2, “Antibody that binds glyphosate resistance protein” (priority 2002, dated 2010).

Key:
E. coli XL1 Blue MRF′ [1] = experiment: Growth of GRG-1 or aroA expressing strains in M63 liquid medium with glyphosate, absorbance at 600 nm at 24 hours; assay type: cell-based; conditions: M63, +IPTG
Description: In addition, these strains engineered to express either GRG-1 or the wild-type E. coli aroA, were tested in another minimal media, M63, with glyphosate concentrations up to 150 mM. 1×M63 was supplemented with 10 g glucose, 10 mg Thiamine-HCl and 25 mg L-Proline. The strains were grown to saturation (overnight) in Luria Broth (Sambrook and Russell, 2001, supra) then washed two times in M63 media (adapted from Current Protocols in Molecular Biology, Greene Publishing and Wiley-Interscience, New York) before being diluted 1:100 in fresh M63 liquid medium containing 0 to 150 mM glyphosate. High level transcription from the Ptac promoter was stimulated by including 0.1 mM IPTG all of the cultures.
Each culture was grown in 2 mls of media in 10 ml tubes at 37° C. in a shaker. At 24 hours, 300 microliters of the culture was withdrawn and placed into a 96-well assay plate. The absorbance of the culture at 600 nm was measured on a Spectromax 96 well plate reader. The values in Table 8 reflect this experiment at 24 hours (NT not tested).

E. coli XL1 Blue MRF′ [2] = experiment: Growth of GRG-1 or aroA expressing strains in M9 liquid medium with glyphosate, absorbance at 600 nm at 8 hours; assay type: cell-based; conditions: for absorbance of the culture at 600 nm: 8 hours, mean of three cultures
From the text: Strains engineered to express either GRG-1 or the wild-type E. coli aroA were engineered as described in the following way. A customized expression vector, pPEH304 Cm was constructed. The essential features of pPEH304 Clare the origin of replication from pBR322, a chloramphenicol acetyl transferase gene (for selection and maintenance of the plasmid), the lacI gene, the Ptac promoter and the rrnB transcriptional terminator. The GRG-1 open reading frame was amplified as described in Example 7. […] The aroA open reading frame was amplified by PCR from E. coli strain XL1 Blue MRF′ (Stratagene). During PCR, restriction sites were added to facilitate cloning into pPEH304 Cm.
The PCR products for GRG-1 and aroA were cloned into the expression vector pPEH304 Cm to yield the plasmids pPEH306 and pPEH307, respectively, and transformed into E. coli XL1 Blue MRF′. Correct clones were identified by standard methods known in the art. The sequence of the GRG-1 and aroA open reading frames in expression clones in pPEH306 and pPEH307 were confirmed by DNA sequencing.
Strains were grown to saturation (overnight) in Luria Broth (Sambrook and Russell, 2001, supra) then diluted 1:100 in M9 liquid medium (recipe) containing 0 to 30 mM glyphosate, and supplemented with 10 g glucose, 10 mg Thiamine-HCl and 25 mg L-Proline. High level transcription from the Ptac promoter was stimulated by including 0.1 mM IPTG in a subset of the cultures (noted as +IPTG in Table 7).
Each culture was grown in a 3 ml tube at 37° C. on a culture wheel. There were three replicate tubes of each treatment. After 8 hours of growth, 310 microliters of culture was withdrawn and placed into a 96-well plate. The absorbance of the culture at 600 nm was measured on a Spectramax 96 well plate reader. The experiment was performed in triplicate, and the values in Table 7 reflect the means of three cultures.

[3] = glyphosate concentration 0, 24 hours
[4] = glyphosate concentration 5 (mM), 24 hours
[5] = glyphosate concentration 30 (mM), 24 hours
[6] = glyphosate concentration 60 (mM), 24 hours
[7] = +IPTG (0.1 mM), 0 mM glyphosate
[8] = +IPTG (0.1 mM), 5 mM glyphosate
[9] = +IPTG (0.1 mM), 10 mM glyphosate
[10] = +IPTG (0.1 mM), 20 mM glyphosate
[11] = +IPTG (0.1 mM), 30 mM glyphosate

Molecule | absorbance of the culture at 600 nm (E. coli XL1 Blue MRF′ [1]; [3]) | absorbance of the culture at 600 nm (E. coli XL1 Blue MRF′ [1]; [4]) | absorbance of the culture at 600 nm (E. coli XL1 Blue MRF′ [1]; [5]) | absorbance of the culture at 600 nm (E. coli XL1 Blue MRF′ [1]; [6]) | absorbance of the culture at 600 nm (E. coli XL1 Blue MRF′ [2]; [7]) | absorbance of the culture at 600 nm (E. coli XL1 Blue MRF′ [2]; [8]) | absorbance of the culture at 600 nm (E. coli XL1 Blue MRF′ [2]; [9]) | absorbance of the culture at 600 nm (E. coli XL1 Blue MRF′ [2]; [10]) | absorbance of the culture at 600 nm (E. coli XL1 Blue MRF′ [2]; [11]) | absorbance of the culture at 600 nm (E. coli XL1 Blue MRF′ [2]; no IPTG, 0 mM glyphosate) | absorbance of the culture at 600 nm (E. coli XL1 Blue MRF′ [2]; no IPTG, 5 mM glyphosate) | absorbance of the culture at 600 nm (E. coli XL1 Blue MRF′ [2]; no IPTG, 10 mM glyphosate) | absorbance of the culture at 600 nm (E. coli XL1 Blue MRF′ [2]; no IPTG, 20 mM glyphosate) | absorbance of the culture at 600 nm (E. coli XL1 Blue MRF′ [2]; no IPTG, 30 mM glyphosate) | glyphosate concentrations that inhibit growth of expressing cells (E. coli XL1 Blue MRF′ [2]; summary of Table 7) | absorbance of the culture at 600 nm (E. coli XL1 Blue MRF′ [1]; glyphosate concentration 150 (mM), 24 hours) | glyphosate concentration in whose presence survival and growth of E. coli is allowed (E. coli XL1 Blue MRF′ [2]; summary of Table 7)
aroA: wild-type E. coli aroA (EPSP synthase), expressed from plasmid pPEH307 (protein, UniProt P0A6D3 1-427, looked up) 3-phosphoshikimate …: MESLTLQPIARVDGTINLPGSKSVSNRALLLAALAHGKTVLTNLLDSDDVRHMLNALTALGVSYTLSADRTRCEIIGNGGPLHAEGALELFLGNAGTAMRPLAAALCLGSNDIVLTGEPRMKERPIGHLVDALRLGGAKITYLEQENYPPLRLQGGFTGGNVDVDGSVSSQFLTALLMTAPLAPEDTVIRIKGDLVSKPYIDITLNLMKTFGVEIENQHYQQFVVKGGQSYQSPGTYLVEGDASSASYFLAAAAIKGGTVKVTGIGRNSMQGDIRFADVLEKMGATICWGDDYISCTRGELNAIDMDMNHIPDAAMTIATAALFAKGTTTLRNIYNWRVKETDRLFAMATELRKVGAEVEEGHDYIRITPPEKLNFAEIATYNDHRMAMCFSLVALSDTPVTILDPKCTAKTFPDYFEQLARISQAA | 0.5982 | 0.1209 | 0.0276 | 0.0298 | 0.075 | 0.068 | 0.063 | 0.056 | 0.052 | 0.095 | 0.048 | 0.046 | 0.047 | 0.048 | ≥ 10 mM | – | –
GRG-1: glyphosate resistance protein (SEQ ID NO:2), homologous to EPSP synthases; expressed in E. coli from plasmid pPEH306 (protein, Enterobacteriaceae, expressed in E. coli from plasmid pPEH306) MKVTIQPGDLTGILQSPASKSSMQRACAAALVAKGISEIINPGHSNDDKAARDIVSRLGARLEDQPDGSLQITSEGVKPVAPFIDCGESGLSIRMFTPIVALSKEEVTIKGSGSLVTRPMDFFDEILPHLGVKVKSNQGKLPLVIQGPLKPADVTVDGSLSSQFLTGLLLAYAAADASDVAIKVTNLKSRPYIDLTLDVMKRFGLKTPENRNYEEFYFKAGNVYDETKMQRYTVEGDWSGGAFLLVAGAIAGPITVRGLDIASTQADKAIVQALMSANAGIAIDAKEIKLHPADLNAFEFDATDCPDLFPPLVALASYCKGETKIKGVSRLAHKESDRGLTLQDEFGKMGVEIHLEGDLMRVIGGKGVKGAEVSSRHDHRIAMACAVAALKAVGETTIEHAEAVNKSYPDFYSDLKQLGGVVSLNHQFNFS | 0.4943 | 0.7192 | 0.7884 | 0.789 | 0.100 | 0.104 | 0.117 | 0.125 | 0.135 | 0.092 | 0.102 | 0.110 | 0.112 | 0.104 | – | 0.951 | 30 mM
